In publication PMC12809912 (2025) one finds koff data, which are given here for 2 molecules.

The assay deals with T1, biotinylated DEFA5 epitope peptide Biotin-RATCYCRTGRCAT (human, cysteine pairing not given here).
T1 peptide: Biotin-RATCYCRTGRCAT
Put plainly: SPR.

Ends that are not written are not given here. * marks the point of attachment. Biotin = O=C1N[C@H]2[C@H](CS[C@H]2CCCCC(=O)*)N1

B1: mouse monoclonal antibody clone 4F5 (anti-DEFA5) (antibody, V domains shown)
VH: QVQLQQSGAELVRPGASVKMSCKALGYTFFDYEMHWMKQTPVYGLEWIGAIHPGSGDTAYNQKFKGKATLTADKSSNTAYMELSSLTSEDSAVYYCTREGTVVAPFDYWGQGTTLTVSS
VL: DVLMTQTPLSLPVSLGDQASISCRSSQSIVHSNGNTYLEWYLQKPGQSPKLLINKVSNRFSGVPDRFSGSGSGTDFTLKISRVEAEDLGVYYCFQGSYVPYTFGGGTKLEIK
modifications: Fc glycosylation, G1F lower and afucosylated G0 ~15 % (intact ESI-MS)
B1 registered a koff of 0.00261 s⁻¹.

B2: mouse monoclonal antibody clone 1A8 (anti-DEFA5) (antibody, V domains shown)
VH: B1 VH
VL: B1 VL
modifications: Fc glycosylation, mainly the G1F glycoform (intact ESI-MS)
B2 had an off-rate constant (koff) of 0.00253 s⁻¹.
